Source: patent publication EP1007561B1

Target: opiate receptors of rat brain homogenate ([3H]-Naloxone binding sites, non-selective binding assay) (rat)
Assay: displacement of 1.0 nM [3H]-Naloxone from rat brain homogenate, filtration; compound at 10 nM

% INHIBITION AT 10 nM: 1.28%
Substance: CCI-H (20% HSA•MPA-AEA3-Dyn A 2-17-NH2) (from UniProt P02768 25-609)
